From paper PMC11630628 (Molecular Plant, 2024)

System: Arabidopsis WT (Col-0) detached rosette leaves
Test: Detached leaf senescence assay, WT
Assay type: in vivo, Arabidopsis thaliana
Method: A. thaliana ecotype Columbia-0 and mutants used in this study include mik2-1 (SALK_06269), mik2-2 (CS419958), proscoop10-1 (SALK_080439), and proscoop10-2 (SALK_027949), which were obtained from ABRC. The proscoop12 CRISPR-Cas9-generated mutants were kindly provided by Dr. Elia Stahi at the University of Lausanne, Switzerland ([Stahl et al., 2022]). Imbibed seeds were incubated at 4°C in a refrigerator for 2 days before sowing on the soil mix (3 parts commercial soil: 1 parts vermiculite) and grown under the long-day condition (16 h light/8 h dark) in a growth chamber with 150 μmol m^−2 s^−1 light intensity. For the senescence phenotyping of detached leaves, the fifth and sixth rosette leaves of 25-day-old plants were removed and placed in Petri dishes with the adaxial side facing up. The Petri dishes were sealed with parafilm to prevent water loss, and the leaves were incubated with deionized water. The application of exogenous peptides followed the previously established method ([Zhang et al., 2022a], [2022b]). […] All data including plant phenotypes and gene expression presented in this study were analyzed with GraphPad Prism 9, and at least three biological replicates were included in each experiment. Chl content, photochemical efficiency of PSII (Fv/Fm ratio), and ion leakage were determined as previously described ([Zhang et al., 2020], [2022b]; [Guo et al., 2022]).

B1: SERINE-RICH ENDOGENOUS PEPTIDE 10 (peptide)
peptide: ALPYHHELFLGRKRMNYYKPNSAIGTPSSTSDHAPGSNGRKLMSIYRPNGDIFTGPSGSGHGGGRTPAP
notes: processed from PROSCOOP10; synthesized by GenScript
senescence phenotype, SCOOP10 alone (sequential assay control) (SCOOP10 alone, Figures 5D and 5E, n = 8 leaves per replicate): significant senescence phenotypes | leaf senescence phenotype, detached leaves (exogenous peptide, SCOOP10 1 μM for 5 days (Figure 2A, 2B; Supplemental Figure 3)): premature senescence phenotype in detached leaves
